Biological target: T1, dDis3-FLAG (Drosophila melanogaster, UniProt Q9VC93 1-982)
T1 sequence (looked up): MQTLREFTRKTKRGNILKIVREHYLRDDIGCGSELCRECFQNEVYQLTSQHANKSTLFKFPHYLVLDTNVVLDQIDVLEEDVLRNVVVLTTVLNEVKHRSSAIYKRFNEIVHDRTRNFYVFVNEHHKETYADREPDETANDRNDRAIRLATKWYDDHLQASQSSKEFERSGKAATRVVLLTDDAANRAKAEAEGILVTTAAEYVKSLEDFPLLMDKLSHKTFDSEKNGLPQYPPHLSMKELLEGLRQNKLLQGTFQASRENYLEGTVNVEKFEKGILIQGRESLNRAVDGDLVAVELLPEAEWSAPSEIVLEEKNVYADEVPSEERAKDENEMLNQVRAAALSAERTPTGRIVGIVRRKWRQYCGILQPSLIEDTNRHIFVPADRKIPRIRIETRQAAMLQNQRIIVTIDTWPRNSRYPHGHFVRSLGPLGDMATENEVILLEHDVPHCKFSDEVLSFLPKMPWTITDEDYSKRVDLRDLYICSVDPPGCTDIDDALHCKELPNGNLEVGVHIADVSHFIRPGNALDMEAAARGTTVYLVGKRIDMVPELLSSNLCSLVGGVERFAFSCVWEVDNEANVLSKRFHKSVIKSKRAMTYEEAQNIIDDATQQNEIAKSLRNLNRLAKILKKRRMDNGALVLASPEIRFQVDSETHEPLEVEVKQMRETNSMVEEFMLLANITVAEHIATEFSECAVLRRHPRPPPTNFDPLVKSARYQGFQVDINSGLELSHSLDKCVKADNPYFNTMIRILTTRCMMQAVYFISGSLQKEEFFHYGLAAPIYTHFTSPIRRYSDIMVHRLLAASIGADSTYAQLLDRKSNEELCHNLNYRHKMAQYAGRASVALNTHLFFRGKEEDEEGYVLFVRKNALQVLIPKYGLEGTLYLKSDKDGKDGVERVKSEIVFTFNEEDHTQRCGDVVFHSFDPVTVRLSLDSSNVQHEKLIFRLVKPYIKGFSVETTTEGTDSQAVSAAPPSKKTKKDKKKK
Assay: co-IP

B1: dRrp6 (natural protein, UniProt Q9VFF3 1-900, looked up)
chain: MPRTPKRVHQEAKEESAQADQPPKKSASEDVEAFTNKGFKNAIAATKAANAFPQGTARALYLSYPGYARVMEDLTQRVVALIGNVLHSKDIKGDIKKRQPEEQFEMVQECNDVLFERITTNLDIKGGLRRNTQQVVEAQVDVMSSSTSIEPAVASPQTQGTPKAGSWNRTTGTPQRSMVSARLFTAKNIVRPQTQFREPVDNSAQNPFVPRLKEKPNSLKPLALLPEYDDAGNVQSYLHPYEFELLKFQPPEEQFQKQKPVLPALMAETELMVVDTVEKLKQALEELRQAPQIAIDVEHHSYRTFMGITCLVQMSTRSKDYIFDTLILRDDMHILNLVLTDPKKLKILHGADLDIEWLQRDLSLYIVNMFDTHRAAKALNMARLSLAYLLKHYLDLDVDKSLQLADWRMRPLPQQLVDYARQDTHFLIYVYGRMTNDLLQQHAEPGLLGSVYQQSTDVCKKRYNKPHIGPESHLDLVRKTKRSFDNRQLYALRGIFEWRDATARSEDESYGYVLPNHMMLQIAESLPREMQGILACCNPIPPLVRQQLHTLHQIVLKARDQPLVKPILEAHSSTQAALPPSTKDFSSKLYCPHDFSQLEEIRDDLPTLLKRNSTTGKLEVPNKEEVAKVDPTLAAPAMALFEKQSKPTQEEEQRWAHLRKESQTMRMPYKRYLAILPLMVQLKADQLARERSELQKRQLCPAAPTVEQNIKLEAHAIGKEDDDMYSVPLKEQLKRKHPQANVKTDPEQQPTASKRPRKDENSQTKPPVKIEPVEKVQQALGESDDEVVEVPIERQATEPPKPSPAQNNRKQKKNQFQRGFKAKNRGNHPQSSSQQVPQHKGTGNFDYKNVDFRQFKGGAQRARGTEIKQQIRGKNRPNNRNNKQFNKLFTFSNVRKEGKK
  fold reduction in recovery (0.2 M Mg2+ against 0.01 M Mg2+): ~2 fold
